# B1: Human p73 isoform ΔNp73β, with C-terminal FlAsH tag, FlAsH-labelled (natural protein, UniProt O15350-9 1-450, looked up)
# chain: MLYVGDPARHLATAQFNLLSSTMDQMSSRAASASPYTPEHAASVPTHSPYAQPSSTFDTMSPAPVIPSNTDYPGPHHFEVTFQQSSTAKSATWTYSPLLKKLYCQIAKTCPIQIKVSTPPPPGTAIRAMPVYKKAEHVTDVVKRCPNHELGRDFNEGQSAPASHLIRVEGNNLSQYVDDPVTGRQSVVVPYEPPQVGTEFTTILYNFMCNSSCVGGMNRRPILIIITLEMRDGQVLGRRSFEGRICACPGRDRKADEDHYREQQALNESSAKNGAASKRAFKQSPPAVPALGAGVKKRRHGDEDTYYLQVRGRENFEILMKLKESLELMELVPQPLVDSYRQQQQLLQRPSHLQPPSYGPVLSPMNKVHGGMNKLPSVNQLVGQPPPHSSAATPNLGPVGPGMLNNHGHAVPANGEMSSSHSAQSMVSGSHCTPPPPYHADPSLVRTWGP
# modifications: FlAsH (from FlAsH-EDT2, an arsenic derivative of fluorescein) on the C-terminal CCPGCC tetra-cysteine tag
# notes: the whole isoform is surmised; also called ΔNp73β-FlAsH; not shown: 6xHis, N-terminal, cleaved; lipoyl domain, N-terminal, cleaved; FlAsH-tag CCPGCC, C-terminal, kept
# B2: Human p63 isoform ΔNp63β, with C-terminal FlAsH tag, FlAsH-labelled (natural protein, UniProt Q9H3D4-4 1-461, looked up)
# chain: MLYLENNAQTQFSEPQYTNLGLLNSMDQQIQNGSSSTSPYNTDHAQNSVTAPSPYAQPSSTFDALSPSPAIPSNTDYPGPHSFDVSFQQSSTAKSATWTYSTELKKLYCQIAKTCPIQIKVMTPPPQGAVIRAMPVYKKAEHVTEVVKRCPNHELSREFNEGQIAPPSHLIRVEGNSHAQYVEDPITGRQSVLVPYEPPQVGTEFTTVLYNFMCNSSCVGGMNRRPILIIVTLETRDGQVLGRRCFEARICACPGRDRKADEDSIRKQQVSDSTKNGDGTKRPFRQNTHGIQMTSIKKRRSPDDELLYLPVRGRETYEMLLKIKESLELMQYLPQHTIETYRQQQQQQHQHLLQKQTSIQSPSSYGNSSPPLNKMNSMNKLPSVSQLINPQQRNALTPTTIPDGMGANIPMMGTHMPMAGDMNGLSPTQALPPPLSMPSTSHCTPPPPYPTDCSIVRIWQV
# modifications: FlAsH (from FlAsH-EDT2, an arsenic derivative of fluorescein) on the C-terminal CCPGCC tetra-cysteine tag
# notes: the whole isoform is surmised; also called ΔNp63β-FlAsH; not shown: 6xHis, N-terminal, cleaved; lipoyl domain, N-terminal, cleaved; FlAsH-tag CCPGCC, C-terminal, kept
# B3: Drosophila melanogaster p53, full length, with C-terminal FlAsH tag, FlAsH-labelled (natural protein, UniProt Q9N6D8 1-385, looked up)
# chain: MYISQPMSWHKESTDSEDDSTEVDIKEDIPKTVEVSGSELTTEPMAFLQGLNSGNLMQFSQQSVLREMMLQDIQIQANTLPKLENHNIGGYCFSMVLDEPPKSLWMYSIPLNKLYIRMNKAFNVDVQFKSKMPIQPLNLRVFLCFSNDVSAPVVRCQNHLSVEPLTANNAKMRESLLRSENPNSVYCGNAQGKGISERFSVVVPLNMSRSVTRSGLTRQTLAFKFVCQNSCIGRKETSLVFCLEKACGDIVGQHVIHVKICTCPKRDRIQDERQLNSKKRKSVPEAAEEDEPSKVRRCIAIKTEDTESNDSRDCDDSAAEWNVSRTPDGDYRLAITCPNKEWLLQSIEGMIKEAAAEVLRNPNQENLRRHANKLLSLKKRAYELP
# modifications: FlAsH (from FlAsH-EDT2, an arsenic derivative of fluorescein) on the C-terminal CCPGCC tetra-cysteine tag
# notes: p53 of Drosophila melanogaster, full-length protein, amplified from a cDNA library; also called Dmp53; Dmp53-FlAsH; not shown: 6xHis, N-terminal, cleaved; lipoyl domain, N-terminal, cleaved; FlAsH-tag CCPGCC, C-terminal, kept
# B4: Danio rerio p53, full length, with C-terminal FlAsH tag, FlAsH-labelled (natural protein, UniProt P79734 1-373, looked up)
# chain: MAQNDSQEFAELWEKNLIIQPPGGGSCWDIINDEEYLPGSFDPNFFENVLEEQPQPSTLPPTSTVPETSDYPGDHGFRLRFPQSGTAKSVTCTYSPDLNKLFCQLAKTCPVQMVVDVAPPQGSVVRATAIYKKSEHVAEVVRRCPHHERTPDGDNLAPAGHLIRVEGNQRANYREDNITLRHSVFVPYEAPQLGAEWTTVLLNYMCNSSCMGGMNRRPILTIITLETQEGQLLGRRSFEVRVCACPGRDRKTEESNFKKDQETKTMAKTTTGTKRSLVKESSSATLRPEGSKKAKGSSSDEEIFTLQVRGRERYEILKKLNDSLELSDVVPASDAEKYRQKFMTKNKKENRESSEPKQGKKLMVKDEGRSDSD
# modifications: FlAsH (from FlAsH-EDT2, an arsenic derivative of fluorescein) on the C-terminal CCPGCC tetra-cysteine tag
# notes: p53 of zebrafish (Danio rerio), full-length protein, from a Mammalian Gene Collection clone; also called Drp53; Drp53-FlAsH; not shown: 6xHis, N-terminal, cleaved; lipoyl domain, N-terminal, cleaved; FlAsH-tag CCPGCC, C-terminal, kept
# B5: Xenopus laevis p53, full length, with C-terminal FlAsH tag, FlAsH-labelled (natural protein, UniProt P07193 1-363, looked up)
# chain: MEPSSETGMDPPLSQETFEDLWSLLPDPLQTVTCRLDNLSEFPDYPLAADMTVLQEGLMGNAVPTVTSCAVPSTDDYAGKYGLQLDFQQNGTAKSVTCTYSPELNKLFCQLAKTCPLLVRVESPPPRGSILRATAVYKKSEHVAEVVKRCPHHERSVEPGEDAAPPSHLMRVEGNLQAYYMEDVNSGRHSVCVPYEGPQVGTECTTVLYNYMCNSSCMGGMNRRPILTIITLETPQGLLLGRRCFEVRVCACPGRDRRTEEDNYTKKRGLKPSGKRELAHPPSSEPPLPKKRLVVVDDDEEIFTLRIKGRSRYEMIKKLNDALELQESLDQQKVTIKCRKCRDEIKPKKGKKLLVKDEQPDSE
# modifications: FlAsH (from FlAsH-EDT2, an arsenic derivative of fluorescein) on the C-terminal CCPGCC tetra-cysteine tag
# notes: p53 of frog (Xenopus laevis), full-length protein, from a Mammalian Gene Collection clone; also called Xlp53; Xlp53-FlAsH; not shown: 6xHis, N-terminal, cleaved; lipoyl domain, N-terminal, cleaved; FlAsH-tag CCPGCC, C-terminal, kept
# B6: human ΔNp73β with C-terminal FlAsH tag, labelled with FlAsH (natural protein, UniProt O15350-9 1-450, looked up)
# chain: B1 chain
# modifications: FlAsH (from FlAsH-EDT2, Lumio Green) on the C-terminal CCPGCC tetra-cysteine tag
# notes: also called human p73; not shown: FlAsH tag CCPGCC, C-terminal, kept; 6xHis, N-terminal, cleaved; lipoyl domain, N-terminal, cleaved
# B7: human ΔNp63β with C-terminal FlAsH tag, labelled with FlAsH (natural protein, UniProt Q9H3D4-4 1-461, looked up)
# chain: B2 chain
# modifications: FlAsH (from FlAsH-EDT2, Lumio Green) on the C-terminal CCPGCC tetra-cysteine tag
# notes: also called human p63; not shown: FlAsH tag CCPGCC, C-terminal, kept; 6xHis, N-terminal, cleaved; lipoyl domain, N-terminal, cleaved
# B8: Xlp53 (Xenopus laevis p53) with C-terminal FlAsH tag, labelled with FlAsH (natural protein, frog (Xenopus laevis), UniProt P07193 1-363, looked up)
# chain: B5 chain
# modifications: FlAsH (from FlAsH-EDT2, Lumio Green) on the C-terminal CCPGCC tetra-cysteine tag
# notes: also called frog p53; not shown: FlAsH tag CCPGCC, C-terminal, kept; 6xHis, N-terminal, cleaved; lipoyl domain, N-terminal, cleaved
# B9: Drp53 (zebrafish p53) with C-terminal FlAsH tag, labelled with FlAsH (natural protein, zebrafish (Danio rerio), UniProt P79734 1-373, looked up)
# chain: B4 chain
# modifications: FlAsH (from FlAsH-EDT2, Lumio Green) on the C-terminal CCPGCC tetra-cysteine tag
# notes: not shown: FlAsH tag CCPGCC, C-terminal, kept; 6xHis, N-terminal, cleaved; lipoyl domain, N-terminal, cleaved
# B10: Dmp53 (Drosophila melanogaster p53) with C-terminal FlAsH tag, labelled with FlAsH (natural protein, fruit fly (Drosophila melanogaster), UniProt Q9N6D8 1-385, looked up)
# chain: B3 chain
# modifications: FlAsH (from FlAsH-EDT2, Lumio Green) on the C-terminal CCPGCC tetra-cysteine tag
# notes: amplified from a cDNA library (Simon Bullock); also called fruit fly p53; not shown: FlAsH tag CCPGCC, C-terminal, kept; 6xHis, N-terminal, cleaved; lipoyl domain, N-terminal, cleaved
# Biological target: the molecule itself
# Test: AUC; sedimentation velocity with fluorescence detection, FlAsH-labelled protein at 5-500 nM (monomer); 150 mM NaCl, 25 mM phosphate pH 7.2, 10% glycerol, BSA 0.2 mg/mL, 1 mM β-mercaptoethanol, 10°C; dimer to monomers; Kd expressed in concentration of monomer
row,Protein,Kd
1,B1,5.7 nM
2,B2,9.3 nM

# Biological target: the molecule itself
# Test: AUC; sedimentation velocity with fluorescence detection, FlAsH-labelled protein at 5-500 nM (monomer); 150 mM NaCl, 25 mM phosphate pH 7.2, 10% glycerol, BSA 0.2 mg/mL, 1 mM β-mercaptoethanol, 10°C; tetramer to dimers; Kd expressed in concentration of monomer
row,Protein,Kd
1,B3,1.7 nM
2,B1,2.4 nM
3,B4,3.6 nM
4,B5,27.6 nM
5,B2,12.2 nM

# Biological target: the molecule itself
# Test: AUC; sedimentation velocity with fluorescence detection, FlAsH-labelled protein at 5-500 nM (also at 60 k rpm); 150 mM NaCl, 25 mM phosphate pH 7.2, 10% glycerol, BSA 0.2 mg/mL, 1 mM beta-mercaptoethanol, 10°C; dimer to monomers; Kd expressed in concentration of monomer
row,Protein,fold weaker primary dimer (monomer-dimer equilibrium) than human p53
1,B6,6 fold
2,B7,9 fold

# Biological target: the molecule itself
# Test: AUC; sedimentation velocity with fluorescence detection, FlAsH-labelled protein at 5-500 nM; 150 mM NaCl, 25 mM phosphate pH 7.2, 10% glycerol, BSA 0.2 mg/mL, 1 mM beta-mercaptoethanol, 10°C; tetramer to dimers; Kd expressed in concentration of monomer
Protein,"fold weaker self-association (dimer-tetramer equilibrium) than Dmp53, Drp53 and ΔNp73β",stoichiometry N
B8,~10 fold,4
B6,–,4
B7,~5 fold,4
B9,–,4
B10,–,4

# — article PMC2807882, “Conservation of DNA-binding specificity and oligomerisation properties within the p53 family” (BMC Genomics, 2009)
